Experimental findings from a protein production outcome set (Wang et al. 2014) are described below.

A short description of this series: label from the status in PepcDB records.
For the sequence “MELVVGRVVKSHGVTGEVVVEIRTDDPADRFAPGTRLRAKGPFDGGAEGSAVSYVIESVRQHGGRLLVRLAGVADRDAADALRGSLFVIDADDLPPIDEPDTYYDHQLVGLMVQTATGEGVGVVTEVVHTAAGELLAVKRDSDEVLVPFVRAIVTSVSLDDGIVEIDPPHGLLNLE”, the protein production result is “failed”. As for “MEMKTKKAVLMSSLALSIIAFLLALILMQPNSAGYPEVPAVPTYVLFGLSAASFAVFIYEYFTATRT”, the protein production result is reported as “failed”. With “MEMRKIGLIGGMSFESSAVYYRLVNEAVRRRRGKLHSAEVLLHSVDFQRIVDLQRAGHWDDAALLLSDVARGLVAGGADCILICSNTMHLIADAVHASVDVPLINIIDETALRLKAAGSRKPLLLATRYTMEQGFYAERMKTHDIDLMVPDADGRTLTHNVIFDELCAGQVLNASRSAVIGLIEKAKAEGADAVILGCTEICLLLDPADLPLPGFDSTAIHAEAAVEFSLRDRQ”, the protein production entry is on record as “failed”. Under “MEMTNAQRLILSNQYKMMTMLDPANAERYRRLQTIIERGYGLQMRELDREFGELKEETCRTIIDIMEMYHALHVSWSNLQDQQSIDERRVTFLGFDAATEARYLGYVRFMVNVEGRYTHFDAGTHGFNAQTPMWEKYQRMLNVWHACPRQYHLSANEINQIINA” stands “not failed”. As for “MENEGASTVCPLDPGSPLFLSGDGFEPVGVLFPHAVFHFPSKEKKEAYDFMDKVVDKHRRLCDERQRLGLKNESEVDVKNEGSTSNPEPAVKEPVPEPLP”, the protein production entry is given as “not failed”.

Turning to “MENFFNQFFESIGEDKNREGLKETPKRVQELWKFLYKGYKEDPRVALKSAYFQGVCDEMIVAQNIEFYSTCEHHLLPFLGNISVGYIPKEKIVGISAIAKLIEIYSRRLQIQERLTIQIAETFDEIIEPRGVIVVCEAKHLCMSMQGVQKQNAIIKTSVLRGLFKKDSKTRAEFMQLLKS”, the protein production result is “failed”. In the case of “MENFVFHNPTKIVFGRGTIPKIGEEIKNAGIRKVLFLYGGGSIKKNGVYDQVVDSLKKHGIEWVEVSGVKPNPVLSKVHEAVEVAKKEKVEAVLGVGGGSVVDSAKAVAAGALYEGDIWDAFIGKYQIEKALPIFDVLTISATGTEMNGNAVITNEKTKEKYGVSSKALYPKVSIIDPSVQFTLPKEQTVYGAVDAISHILEYYFDGSSPEISNEIAEGTIRTIMKMTERLIEKPDDYEARANLAWSATIALNGTMAVGRRGGEWACHRIEHSLSALYDIAHGAGLAIVFPAWMKYVYRKNPAQFERFAKKIFGFEGEGEELILKGIEAFKNWLKKVGAPVSLKDAGIPEEDIDKIVDNVMLLVEKNLKPKGASLGRIMVLEREDVREILKLAAK”, the protein production result was “not failed”. For the sequence “MENKRAIIAVVLSFIVLVGWGYLSEYMGWTPKSVPATEQKTAASAPAPSVVTSAPEAVTPAPAFSPSTGHEVTVTTPLYKAVLHSGGGVLRQFMLSRYHMGIDRDAAPVNLIESSAIRVAPLGLLVNGQPSWNTGQWAFEGGDLNLADGQTGTLRFVGSVDGLRVVRELEFHADSYLVTEKLHLAPEGDAPRTARVGFTLGTTSLTPGESQYNLTRVAWFADGSFSEKSSTGDLEKGVLIDGSIDWAGVMSNYFLAAVAPKDTRAVLKGKLEGGVYRVAVERPDQMVNPGNSDVIVCNYWFGPKERDLLNAAPNNLGKAIDLGWFGFIARPLVTLLDFFYKYVGNYGTAIILLTILIKLVFWPLSHKSYKSMEQMKKLQPMLAKVREKHADDREKMNEEMMRLYKTYKVNPAGGCLPMLVQIPVFFGLYQALLNAIELRHAPFIAHVPFTDIVWLADLSAKDPFYVTPLVMGATMFLQQKLTPPAGDPTQAKVMMFMPVVFTFLFLNFPSGLVVYWLCNNVLSIAQQWWILRKA”, the protein production entry was “failed”. With “MENLASPPDISFVIAAYNAADTIEAAVQSALDQRGVTLEVIVVDDRSADDTITFVEAIAAIDPRVRLLALEENRGPGGARNAGIEAATGRWIAVLDSDDVIRPERSACMMCRAEAANAAVAVDNLDVVYTDGRPMETMFPEEFLEERAVLTLEDFISSNILFRSTFNFGYMKPMFRRDFLNNEGLRFREDIRIGEDYILLASALAAGGLCVIEPKPGYIYNIREGSISRVLELHHVEAMMRADQEFLSHYTLLPAAMDAQQARARSLQLAHNFLTLVENIKRRSVLGALKTTIRDPAVLGHLRMPIAVRLRRLRDAMFAPAAKIQGLEHHHHHH” the entry was “not failed”; with “MENLGDRLEVVAELSLAPGNITLTPDGRLFLSLHQFYQPEMQVAELTQDGLIPFPPQSGNAIITFDTVLGIKSDGNGIVWMLDNGNQSKSVPKLVAWDTLNNQLSRVIYLPPPITLSNSFVNDLAVDLIHNFVYISDPAPDDKAALIRVDLQTGLAARVLQGYPGIAPEDIDLVIDGVPVQIGQPDGTVIRPHLGVNGIVLDAENEWLYLSPMHSTSMYRIKSADLSNLQLTDAELGSKIERYSEKPICDGISIDKDHNIYVGDLAHSAIGVITSADRAYKLLVTDEKLSWTDSFNFGSDGYLYFDCNQLHHSAPLNAGENISAPPYYIFRLKPLAAGIVGR”, “not failed”; with “MENLYKELGDQSLHKDFCQTVASTFSCSVNRNGKSSITWKQVQIWFQEKLKHQSQPKSKTLPSPPLQIHDLSNPSSYASNASNATFVGNSTFVQTRKGKASDLADLAFEAKSARDYAWYDVSSFLTYRVLRTGELEVRVRFSGFDNRHDEWVNVKTSVRERSIPVEPSECGRVNVGDLLLCFQEREDQALYCDGHVLNIKRGIHDHARCNCVFLVRYELDNTEESLGLERICRRPEE”, “failed”.

On to “MENRIELYDSKARYGVISRGLHWAMALAFAWIYSTTSAHYLLADSALDKFLWPTHKQVGLLLMALLLVRVLWSLLNRHRRPPSLNLAATLGHGLLYAGMFAIPFLGLLRQYGSGRAFSAFGLPVMNGFDGPKIQWMTELGNNFHSLLGWTLLVLIVGHVAALILHCIKGQGHILRRMAGSARSA”, for which the protein production result is “failed”. “MENSDDIRLIVKIAQLYYEQDMTQAQIARELGIYRTTISRLLKRGRDQGMVTIAINYDYNENLWLEQQLKQKFGLKDVVVVSGNDEDEETQLAMMGLHGAQLLDRLLEPGDIVGFSWGRAVSALVENLPQAGQSRQLICVPIIGGPSGKLESRYHVNTLTYSAAAKLKGESHLADFPALLDNPLIRNGIMQSQHFKTISAYWDNLDIALVGIGSPAIRDGANWHAFYGGEESDDLNARQVAGDICSRFFDIHGAMVETNMSEKTLSIEMNKLKQARYSIGIAMSEEKYSGIIGALRGKYINCLVTNSSTAELLLK”: the protein production result is “not failed”. Regarding “MENTLSFKKQGYWLFSSAIIIGVLFLLLPHIISNIGVLEFIGAFFNALCMGVIAFIILKAEFLDWFKHFSFKWIIIGAPALIIISSIFNIAWAYFAGSTTENGINSVLTWTYVFTSIPFMLLGEELLSISLLYAAWKKWNWKFWQASLLCSLLFATWHLTSYDFNFLQCIITLAPARLILNYLFKKTNSVWVTFIVHFIFDFIAFLPILLK”, the protein production entry is reported as “failed”. For the sequence “MENYHRLYELSPLITGWTICVMILRIYKKMLNDHSFELHLILQDEAGKRIEVTIGTRFSAFYYDRLIENQWKMISTFLGTVLLNNFTPFDYILEHSVRKDTLVDLLGALIDFDWLTNSAPNGSDMDGFKLQFRFIDSKFTIYSQDILQCEAHGEYAVDLEKKFRSVRNNKVVIALAFWKIVTYFDGGHRMKIASHAPISTVYPDPDIEPVKEIKMVCIY”, the protein production result is given as “failed”. Consider “MEPCSSDEFFQALNHAEQTFKKMENYLRHKQLCDVILVAGDRRIPAHRLVLSSVSDYFAAMFTNDVREARQEEIKMEGVEPNSLWSLIQYAYTGRLELKEDNIECLLSTACLLQLSQVVEACCKFLMKQLHPSNCLGIRSFADAQGCTDLHKVAHNYTMEHFMEVIRNQEFVLLPANEIAKLLASDDMNIPNEETILNALLTWVRHDLEQRRKDLSRLLAYIRLPLLAPQAPGLELSSPDLHSKDLAHSAISSTPK”, for which the protein production entry is “failed”.
